Measurements: US20260167959A1, “APTAZYME-BASED REGULATABLE GENE EXPRESSION SYSTEMS” (REJUVENATE BIO INC, priority 2022, published 2026)
Where a chain is given by its changes, count along the chain named.

B1: RA218 (nucleic acid)
DNA: GCGCGTCCTGGATTCGCGGAAACGCGTACATCCAAGTGATACCAGCATCGTCTTGATGCCCTTGGCAGCACTGCTGACGAGTCCCAAATAGGACGAAACGCGC
modifications: expressed or natural sequence
B2: RA021 (nucleic acid)
DNA: GCGCGTCCTGGATTCGCGGAAACGCGTACATCCAGCTGACGAGTCCCAAATAGAGTGATACCAGCATCGTCTTGATGCCCTTGGCAGCACTGACGAAACGCGC
modifications: expressed or natural sequence
B3: RA219 (nucleic acid)
DNA: GCGCGTCCTGGATTCGCGGAAACGCGTACATCCAGCGGAATACCAGCATCGTCTTGATGCCCTTGGAAGTCCTGACGAGTCCCAAATAGGACGAAACGCGC
modifications: expressed or natural sequence
B4: RA220 (nucleic acid)
DNA: GCCGAGAATACCAGCATCGTCTTGATGCCCTTGGAAGTCTCGGCGTCCTGGATTCGCGGAAACGCGTACATCCAGCTGACGAGTCCCAAATAGGACGAAACGCGC
modifications: expressed or natural sequence
B5: RA221 (nucleic acid)
DNA: GCGCGTCCTGGATTCGCGGAAACGCGTACATCCAGCTGACGGAATACCAGCATCGTCTTGATGCCCTTGGAAGTCCGCGAGTCCCAAATAGGACGAAACGCGC
modifications: expressed or natural sequence
B6: RA222 (nucleic acid)
DNA: GCGCGTCCTGGATTCGCGGAAACGCGTACATCCAGCTGACAGAATACCAGCATCGTCTTGATGCCCTTGGAAGTCTGAGTCCCAAATAGGACGAAACGCGC
modifications: expressed or natural sequence
B7: RA223 (nucleic acid)
DNA: GCGCGTCCTGCGAGAATACCAGCATCGTCTTGATGCCCTTGGAAGTCTCGGATTCGCGGAAACGCGTACATCCAGCTGACGAGTCCCAAATAGGACGAAACGCGC
modifications: expressed or natural sequence
B8: RA224 (nucleic acid)
DNA: GCGCGTCCTGGATTCGCGGAAACGCGTACATCCAGCTGACGAGTCCCAAATAGAGAATACCAGCATCGTCTTGATGCCCTTGGAAGTCTGACGAAACGCGC
modifications: expressed or natural sequence
B9: RA225 (nucleic acid)
DNA: GCGCGTCCTGGATTCGCGGAAACGCGTACATCCAGCTGACGAGTCCCAAATAAGAATACCAGCATCGTCTTGATGCCCTTGGAAGTCTGGACGAAACGCGC
modifications: expressed or natural sequence
B10: RA226 (nucleic acid)
DNA: B5 DNA with C40A, G42T, A43G, A71C, T74C, C75A, G77T
modifications: expressed or natural sequence
B11: RA227 (nucleic acid)
DNA: GCGCGTCCGAGAATACCAGCATCGTCTTGATGCCCTTGGAAGTCTCGCTGGATTCGCGGAAACGCGTACATCCAGCTGACGAGTCCCAAATAGGACGAAACGCGC
modifications: expressed or natural sequence
B12: RA228 (nucleic acid)
DNA: GCGCGTCCTGGATTCGCGGAAACGCGTACATCCAGCTGGGAATACCAGCATCGTCTTGATGCCCTTGGAAGTCCACGAGTCCCAAATAGGACGAAACGCGC
modifications: chemistry not given here
B13: RA022 (nucleic acid)
DNA: GCGCGTCCTGGATTCGCGGAAACGCGTACAAGTGATACCAGCATCGTCTTGATGCCCTTGGCAGCACTTCCAGCTGACGAGTCCCAAATAGGACGAAACGCGC
modifications: expressed or natural sequence
B14: RA229 (nucleic acid)
DNA: GCGCCGGAATACCAGCATCGTCTTGATGCCCTTGGAAGTCCGGCGTCCTGGATTCGCGGAAACGCGTACATCCAGCTGACGAGTCCCAAATAGGACGAAACGCGC
modifications: expressed or natural sequence
B15: RA230 (nucleic acid)
DNA: GCGCGTCCTGAGAATACCAGCATCGTCTTGATGCCCTTGGAAGTCTCGGATTCGCGGAAACGCGTACATCCAGCTGACGAGTCCCAAATAGGACGAAACGCGC
modifications: expressed or natural sequence
B16: RA231 (nucleic acid)
DNA: GCGAGAATACCAGCATCGTCTTGATGCCCTTGGAAGTCTCGCGTCCTGGATTCGCGGAAACGCGTACATCCAGCTGACGAGTCCCAAATAGGACGAAACGCGC
modifications: expressed or natural sequence
B17: RA232 (nucleic acid)
DNA: B4 DNA with G4C, A5G, T40C, C41G
modifications: expressed or natural sequence
B18: RA233 (nucleic acid)
DNA: B16 DNA with G3A, A4G, G5T, A6G, A34C, T37C, C38A, T39C, C40T
modifications: expressed or natural sequence
B19: RA234 (nucleic acid)
DNA: GCGCGTCCTGGATTCGCGGAAACGCGTACATCCAGCTGACGAGTCCCAAATAGGACGAAACCGGAATACCAGCATCGTCTTGATGCCCTTGGAAGTCCGGCGC
modifications: expressed or natural sequence
B20: RA235 (nucleic acid)
DNA: GCGCGTCCTGGATTCGCGGAAACGCGTACATCCAGCTGACGAGTCCCAAATAGGAGAGAATACCAGCATCGTCTTGATGCCCTTGGAAGTCTCCGAAACGCGC
modifications: expressed or natural sequence
B21: RA236 (nucleic acid)
DNA: GCGCGTCCTGGATTCGCGGAAACGCGTACACCGGAATACCAGCATCGTCTTGATGCCCTTGGAAGTCCGGTCCAGCTGACGAGTCCCAAATAGGACGAAACGCGC
modifications: expressed or natural sequence
B22: RA237 (nucleic acid)
DNA: GCGCGTCCTGGATTCGCGGAAACGCGTACATCCAGCTGACGGAGAATACCAGCATCGTCTTGATGCCCTTGGAAGTCTCAGTCCCAAATAGGACGAAACGCGC
modifications: expressed or natural sequence
B23: RA238 (nucleic acid)
DNA: GCGCGTCCTGGATTAGAATACCAGCATCGTCTTGATGCCCTTGGAAGTCTCGCGGAAACGCGTACATCCAGCTGACGAGTCCCAAATAGGACGAAACGCGC
modifications: expressed or natural sequence
B24: RA023 (nucleic acid)
DNA: GCGCGTCCTGGATTCGCGGAAACGCGTGAGAATACCAGCATCGTCTTGATGCCCTTGGAAGTCTCACATCCAGCTGACGAGTCCCAAATAGGACGAAACGCGC
modifications: expressed or natural sequence
B25: RA239 (nucleic acid)
DNA: GCGCGTCCTGGATTCGCGGAAACGCGTACATCCAGCTGACCCGGAATACCAGCATCGTCTTGATGCCCTTGGAAGTCCGGGAGTCCCAAATAGGACGAAACGCGC
modifications: expressed or natural sequence
B26: RA240 (nucleic acid)
DNA: GCGCGTCCTGGATTCGCGGAAACGCGTACATCCAGCTGACGAGTCCCCGAGAATACCAGCATCGTCTTGATGCCCTTGGAAGTCTCGAAATAGGACGAAACGCGC
modifications: expressed or natural sequence
B27: RA241 (nucleic acid)
DNA: GCGCGTCCTCCGGAATACCAGCATCGTCTTGATGCCCTTGGAAGTCCGGGGATTCGCGGAAACGCGTACATCCAGCTGACGAGTCCCAAATAGGACGAAACGCGC
modifications: expressed or natural sequence
B28: RA242 (nucleic acid)
DNA: GCGCGTCCTGGATTCCGGAATACCAGCATCGTCTTGATGCCCTTGGAAGTCCGGCGCGGAAACGCGTACATCCAGCTGACGAGTCCCAAATAGGACGAAACGCGC
modifications: expressed or natural sequence

test system: Renilla luciferase RNA; assay: Barcoded aptazyme variant library screen: un-cleaved Renilla luciferase RNA by barcode read counts, HEK293-T cells; format: cell-based; settings: un-cleaved Renilla luciferase RNA, HEK293-T cells cultured with 1 mM theophylline (ON) over without theophylline (OFF); barcode read counts, triplicate
Method in brief: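 Aptazyme variants (seven theophylline aptamers inserted after each T3H48 ribozyme nucleotide, 9-nt barcoded) cloned into the 3′ UTR of Renilla luciferase in psiCHECK-2; cells cultured ± theophylline, in triplicate. RNA and DNA barcodes amplified and sequenced; normalized read counts gave un-cleaved RNA fraction and ON/OFF fold-change.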

| Molecule | Fold change in RNA expression between the ON state and the OFF state [fold] |
| --- | --- |
| B1 | 1.2 |
| B2 | 2.7 |
| B3 | 1.2 |
| B4 | 1.2 |
| B5 | 1.2 |
| B6 | 1.2 |
| B7 | 1.2 |
| B8 | 1.1 |
| B9 | 1.1 |
| B10 | 1.1 |
| B11 | 1.1 |
| B12 | 1.1 |
| B13 | 2.6 |
| B14 | 1.1 |
| B15 | 1.1 |
| B16 | 1.1 |
| B17 | 1.1 |
| B18 | 1.1 |
| B19 | 1.1 |
| B20 | 1.1 |
| B21 | 1.1 |
| B22 | 1.1 |
| B23 | 1.1 |
| B24 | 2.6 |
| B25 | 1.1 |
| B26 | 1.1 |
| B27 | 1.1 |
| B28 | 1.1 |
